Experimental data published in patent publication US20150072922A1, “RNASE 7 ANTIMICROBIAL PEPTIDES” (THE RESEARCH INSTITUTE AT NATIONWIDE CHILDREN'S HOSPITAL, priority 2012, published 2015).
“Also recorded” adds a separate entry of the source. Marks after values point to notes of the source that are not given here. No end group written: not given here. *: point of attachment. His tag = six-residue histidine tag at the N-terminus, N[C@@H](Cc1c[nH]cn1)C(=O)N[C@@H](Cc1c[nH]cn1)C(=O)N[C@@H](Cc1c[nH]cn1)C(=O)N[C@@H](Cc1c[nH]cn1)C(=O)N[C@@H](Cc1c[nH]cn1)C(=O)N[C@@H](Cc1c[nH]cn1)C(=O)*

B1: F:30-97: recombinant middle RNase 7 fragment, amino acids 30 to 97, first four beta sheets, N-terminal His tag (protein)
chain: {His tag}-INKHTKRCKDLNTFLHEPFSSVAATCQTPKIACKNGDKNCHQSHGPVSLTMCKLTSGKYPNCRYKEKR
modifications: ends and bridges not checked
notes: recombinant middle RNase 7 fragment, amino acids 30 to 97, first four beta sheets, N-terminal His tag
B2: F:30-128: recombinant C-terminal RNase 7 fragment, amino acids 30 to 128, N-terminal His tag (protein)
chain: INKHTKRCKDLNTFLHEPFSSVAATCQTPKIACKNGDKNCHQSHGPVSLTMCKLTSGKYPNCRYKEKRQNKSYVVACKPPQKKDSQQFHLVPVHLDRVL
modifications: left off: small tags and cut ends
notes: recombinant C-terminal RNase 7 fragment, amino acids 30 to 128, N-terminal His tag
B3: F:1-71: recombinant N-terminal RNase 7 fragment, amino acids 1 to 71 (SEQ ID NO: 3), N-terminal His tag (protein, listed as Homo sapiens)
chain: KPKGMTSSQWFKIQHMQPSPQACNSAMKNINKHTKRCKDLNTFLHEPFSSVAATCQTPKIACKNGDKNCHQ
modifications: N-terminal His tag

Tests used:
Escherichia coli (UTI89) [1] = experiment: Antimicrobial kill (microdilution) assay, MIC/MBC by CFU count; type: cell-based; details: for antimicrobial activity against E. coli (in words): MIC/MBC based, mostly compared to full-length RNase 7; for E. coli MIC: lowest concentration that inhibits the growth of 90% of the inoculation; for E. coli MIC / E. coli MBC: 3 hours, 0.1×PBS; for E. coli MBC: minimum bactericidal concentration; for MIC/MBC fold higher than full-length protein, E. coli: compared to full-length RNase 7
Description: (§1) The antimicrobial activity of RNase 7 and its fragments was estimated using a microdilution assay. Briefly, test bacteria (10^5) were incubated with several concentrations of RNase 7 and each fragment in 50 μl 0.1×PBS buffer for 3 hours in a 37° C. incubator. Each reaction was plated on the appropriate medium and grew overnight at 37° C. The antimicrobial activity was determined by the number of colony-forming units (CFUs) the following day. The minimum inhibition concentration (MIC) is defined as the lowest concentration that inhibits the growth of 90% of the inoculation and the minimum bactericidal concentration (MB C) is defined as the lowest concentration at which less than 99.99% of the initial inoculum is viable.
(§2) Antimicrobial activities of the recombinant peptides were estimated with a microdilution assay. Briefly, the test bacteria (10^4 CFUs) were incubated with various concentrations of RNase 7 and each fragment in 50 ul 0.1×PBS buffer for 3 hours at 37° C. After incubation on Agar plates overnight at 37° C., the number of colony-forming units (CFUs) at each peptide concentration was determined. Using untreated bacterial aliquots as baseline, the minimum inhibition concentration (MIC) was defined as the lowest concentration that inhibits the growth of 90% of the inoculation, and the minimum bactericidal concentration (MBC) was defined as the lowest concentration at which less than 99.99% of the initial inoculum is viable.

[2] = system: Staphylococcus saprophyticus (ATCC 15305); experiment: as above; type: cell-based; details: for S. saprophyticus MIC: lowest concentration that inhibits the growth of 90% of the inoculation; for S. saprophyticus MIC / S. saprophyticus MBC: 3 hours, 0.1×PBS; for S. saprophyticus MBC: minimum bactericidal concentration; for MIC/MBC fold higher than full-length protein, S. saprophyticus: compared to full-length RNase 7
Description: as §1, §2

[3] = system: Proteus mirabilis (ATCC 7002); experiment: as above; type: cell-based; details: 3 hours, 0.1×PBS; for P. mirabilis MIC: lowest concentration that inhibits the growth of 90% of the inoculation; for P. mirabilis MBC: minimum bactericidal concentration
Description: Uropathogenic Escherichia coli (UTI89) was grown in Luria broth (LB) medium and plated on LB-agar. Uropathogenic Staphylococcus saprophyticus (ATCC 15305) was grown in LB and plated on Trypticase Soy Agar with 5% sheep blood (Fisher Scientific, Pittsburgh, Pa., USA). Uropathogenic Proteus mirabilis (ATCC 7002) was grown in LB and plated on MacConkey II Agar (Fisher Scientific, Pittsburgh, Pa., USA). These organisms were chosen as the primary organisms that account for a majority of Gram-negative and Gram-positive urinary tract infections (UTI). Anti-RNase 7 antibody was generated in rabbit with recombinant human RNase 7 (Biomatik, Wilmington, Del., USA)
as §2

E. coli = experiment: Urinary condition functional assay (OD600 growth curves); type: cell-based, Escherichia coli; details: 2 μM peptide, 50, 150, 500 mM NaCl, OD600 for 10 hours, FIG. 4
Description: (§3) Because the urinary environment can have significant variation in salt concentration, ionic composition, and pH, an antimicrobial/bacteriostatic assay was performed to evaluate if pH, calcium, or ionic strength affects the activity of full-length RNase7 or its fragments. The highest activity fragment F:1-97 and lowest activity fragment F:72-128 for these experiments were chosen. Bacteria were inoculated in 1% peptone water and growth to log phase with OD600=0.5. Bacteria were diluted to 1:10 and 1 μl added to 100 μl of 1% peptone water with various pH, CaCl2 or NaCl concentrations that correspond to a physiologic range present in the urine in a 96-well flat bottom plate (Thermo Scientific, Nunc, Worcester, Mass.). To each well, 2 μM of RNase7 or its fragments were added.
(§4) Bacterial growth was monitored using an Absorbance microplate reader (BioTek Instruments, Winooski, Vt.) at a final volume of 110 μl. The turbidity of the culture was measured and recorded at t=0 and every 20 min thereafter for 10 hours using the absorbance at 600 nm (OD600). The values of OD600 values were plotted against times to generate growth curves.

S. saprophyticus = experiment: as above; type: cell-based, Staphylococcus saprophyticus
Description: as §3, §4

Proteus mirabilis = experiment: as above; type: cell-based
Description: as §3, §4

Escherichia coli (UTI89) [4] = experiment: SYTOX Green bacterial cell death / membrane permeabilization assay; type: cell-based; details: 3 hours, FIG. 1, compared to full-length
Description: (§5) Assays of the permeabilization of bacterial membrane were performed with SYTOX green nucleic acid stain (Invitrogen™). The overnight cultures of bacteria were centrifuged at 5000 rpm for 5 min, the pellets were then washed with water and resuspended in water with an OD=0.5. 90 μl of each bacteria were then incubated with 10 μl of peptides with different concentrations for 3 hours at 37° C. in a 96-well plate. 100 μl of 2 μM SYTOX Green (Invitrogen™) were then added to each well and incubated in dark for 15 min. SYTOX green penetrates cells with compromised membranes not the membranes of live cells. The increase of fluorescence was measured using […] filters for excitation and emission wavelengths, respectively. Bacteria alone and bacteria treated with 70% ethanol were used as controls and the fluorescence from each was recorded as Fmin and Fmax. The percentage of cell death at each concentration for each fragment was calculated as below: death %=(F−Fmin)/(Finax−Fmin)*100%
(§6) To confirm the accuracy of our MIC/MBC data, cell death assays using SYTOX Green (Invitrogen), which selectivity labels nucleic acids of cells with compromised membranes of dead/dying cells were performed. Overnight cultures of bacteria were centrifuged at 5000 rpm for 5 minutes. Pellets were then washed with PBS (pH 7.4) and resuspended in PBS to an OD600 of 0.5 for Escherichia coli (UTI89) and OD600 of 0.8 for Staphylococcus saprophyticus. Per manufacturerer's instructions, 90 μl of each bacteria strain were incubated with 100 μl of 2 uM SYTOX Green for 15 minutes. Ten microliters of peptides at various concentrations were added for 3 hours at 37° C. in a 96-well plate. Compromised bacterial membranes of dead/dying cells will be labeled while lives cells are not labeled as noted by Invitrogen. Fluorescence was measured using 485 and 520-nm filters for excitation and emission wavelengths, respectively. Untreated bacteria were used as a 100% live control, and fluorescence was noted as Fmin. To elicit complete killing, bacteria were treated with 70% ethanol for 1 hour. This experimental group's fluorescence was noted as Fmax. The percentage of cell death at each concentration for each fragment was calculated as (Ffragment−Fmin)/(Fmax−Fmin)×100%.

[5] = system: Staphylococcus saprophyticus; experiment: as above; type: cell-based; details: 3 hours, FIG. 2, compared to full-length
Description: as §5, §6

uropathogenic E. coli = experiment: RNase7 antibacterial activity, MIC on strains isolated from positive urine cultures; type: cell-based, Escherichia coli; details: uropathogenic E. coli isolated from urine cultures (N=3)
Source text: Laboratory bacterial strains from the American Type Culture Collection (ATCC, Manassas, Va.) and strains isolated from positive urine cultures were obtained from the Microbiology Laboratory at Nationwide Children's Hospital.

Row | Molecule | antimicrobial activity against E. coli (in words) (Escherichia coli (UTI89) [1]) | E. coli MIC (Escherichia coli (UTI89) [1]) | E. coli MBC (Escherichia coli (UTI89) [1]) | S. saprophyticus MIC [2] | S. saprophyticus MBC [2] | P. mirabilis MIC [3] | P. mirabilis MBC [3] | MIC/MBC fold higher than full-length protein, E. coli (Escherichia coli (UTI89) [1]) | MIC/MBC fold higher than full-length protein, S. saprophyticus [2] | membrane permeabilization and death, E. coli (in words) (Escherichia coli (UTI89) [4]) | membrane permeabilization and death, S. saprophyticus (in words) [5] | further results
1 | F:72-128: recombinant C-terminal RNase 7 fragment, amino acids 72 to 128, N-terminal His tag ({His tag}-SHGPVSLTMCKLTSGKYPNCRYKEKRQNKSYVVACKPPQKKDSQQFHLVPVHLDRVL; ends and bridges not checked) | least activity | 3.5** uM | 7* uM | 3.5** uM | >7** uM | >3.5** uM | >3.5** uM | – | – | – | – | activity on E. coli growth at various NaCl titers (E. coli): inhibitory effect of 500 mM NaCl against E. coli was diminished with the addition of F:72-128; activity on S. saprophyticus growth at various NaCl titers (S. saprophyticus; 2 μM peptide, 50, 150, 500 mM NaCl, OD600 for 10 hours, FIG. 7): minimal activity against S. saprophyticus at all NaCl concentrations; activity on S. saprophyticus growth at various pH levels (S. saprophyticus; 2 μM peptide, pH 5, 7, 9, OD600 for 10 hours, FIG. 6): minimal activity with enhanced growth at pH 7 and 9; also recorded: grew better with the addition of F:72-128 at pH 7 and 9; activity on Proteus mirabilis growth at various NaCl titers (Proteus mirabilis; 2 μM peptide, 50, 150, 500 mM NaCl, OD600 for 10 hours, FIG. 10): minimal activity against P. mirabilis at all NaCl concentrations; activity on Proteus mirabilis growth at various pH levels (Proteus mirabilis; 2 μM peptide, pH 5, 7, 9, OD600 for 10 hours, FIG. 9): minimal activity with enhanced growth at pH 7 and 9
2 | F:46-97: recombinant middle RNase 7 fragment, amino acids 46 to 97, beta sheets 2-4, N-terminal His tag ({His tag}-EPFSSVAATCQTPKIACKNGDKNCHQSHGPVSLTMCKLTSGKYPNCRYKEKR; ends and bridges not checked) | – | 0.88 µM | 1.75 µM | 0.44 µM | 1.75 µM | 3.5 µM | >3.5** uM | two-fold higher | two-fold higher | enhanced permeabilization and death compared to the full-length protein; also recorded: potent membrane penetrating activity | no activity compared to full length protein; also recorded: negligible activity against S. saprophyticus | –
3 | B1 | – | 0.44 µM | 0.88 µM | 0.44 µM | 1.75* uM | >3.5** uM | >3.5** uM | two-fold higher | two-fold higher | less activity when compared with full-length RNase 7 | less activity when compared with full-length RNase 7 | –
4 | B2 | – | 0.52 µM | 2.07 µM | 0.88* uM | .88 µM | >3.5** uM | >3.5** uM | – | – | – | – | –
5 | B3 | lower activity against E. coli; also recorded: markedly reduced activity against E. coli | 1.93** uM | 3.86 µM | 0.23 µM | >0.92* uM | .44 µM | .88 µM | seven-fold higher | – | lower permeability against E. coli | shows permeability against S. Saprophyticus | MBC against E. coli (Escherichia coli (UTI89) [1]): 3.86 µM; MIC against E. coli (Escherichia coli (UTI89) [1]): 1.93 µM; antimicrobial activity against E. coli (in words) (Escherichia coli (UTI89) [1]; listed as 1-71): least activity; also recorded: significantly decreased activity; antimicrobial activity against S. saprophyticus (in words) ([2]; MIC/MBC based, mostly compared to full-length RNase 7): shows antimicrobial activity against S. saprophyticus; also recorded: same activity to S. saprophyticus as full length protein; mean inhibitory concentration (MIC) (uropathogenic E. coli): 0.63 µM
